The text below walks through data of paper PMC7430637, “Alternative splicing and allosteric regulation modulate the chromatin binding of UHRF1” (Nucleic Acids Research, 2020).

Residue numbers refer to the chain shown, from its start.

Common to all, as to assay: fluorescence polarisation; FAM-labelled H3(1-15) peptide, recombinant protein titrated; RT; as described (ref. 28)
Details in all cases: both partners purified

The target in assay [1] is T1, mTTD-PHD V1 P-patch* (P293A/P294A/P295A) (mouse, UniProt Q8VDF2-1 122-380, P293A | P294A | P295A).
T1 construct: UHRF1, mouse, splicing variant V1 (NCBI NP_001104550.1), TTD-Linker 2-PHD, residues 122-380 as told for wild-type mTTD-PHD V1; source: E. coli BL21(DE3) RIL, purified (HisPur Cobalt-Resin)
T1 sequence (looked up): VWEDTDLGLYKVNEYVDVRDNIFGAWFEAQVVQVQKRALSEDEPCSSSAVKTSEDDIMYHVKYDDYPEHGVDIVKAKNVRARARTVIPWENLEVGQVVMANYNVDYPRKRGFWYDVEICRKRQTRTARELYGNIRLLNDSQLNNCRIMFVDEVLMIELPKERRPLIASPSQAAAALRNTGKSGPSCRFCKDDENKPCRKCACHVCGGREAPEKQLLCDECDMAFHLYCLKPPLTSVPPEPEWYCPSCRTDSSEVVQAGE

The target in assay [2] is T2, mUHRF1 V1 P-patch/R-S* (P293A/P294A/P295A/R298A/N299A/T300A/G301A/K302A/S303A), full-length (mouse, UniProt Q8VDF2-1 1-782, P293A | P294A | P295A | R298A | N299A | T300A | G301A | K302A | S303A).
T2 construct: UHRF1, mouse, splicing variant V1, NCBI NP_001104550.1, with nine alanine substitutions in Linker 2; source: E. coli BL21(DE3) RIL, purified (HisPur Cobalt-Resin)
T2 sequence (looked up): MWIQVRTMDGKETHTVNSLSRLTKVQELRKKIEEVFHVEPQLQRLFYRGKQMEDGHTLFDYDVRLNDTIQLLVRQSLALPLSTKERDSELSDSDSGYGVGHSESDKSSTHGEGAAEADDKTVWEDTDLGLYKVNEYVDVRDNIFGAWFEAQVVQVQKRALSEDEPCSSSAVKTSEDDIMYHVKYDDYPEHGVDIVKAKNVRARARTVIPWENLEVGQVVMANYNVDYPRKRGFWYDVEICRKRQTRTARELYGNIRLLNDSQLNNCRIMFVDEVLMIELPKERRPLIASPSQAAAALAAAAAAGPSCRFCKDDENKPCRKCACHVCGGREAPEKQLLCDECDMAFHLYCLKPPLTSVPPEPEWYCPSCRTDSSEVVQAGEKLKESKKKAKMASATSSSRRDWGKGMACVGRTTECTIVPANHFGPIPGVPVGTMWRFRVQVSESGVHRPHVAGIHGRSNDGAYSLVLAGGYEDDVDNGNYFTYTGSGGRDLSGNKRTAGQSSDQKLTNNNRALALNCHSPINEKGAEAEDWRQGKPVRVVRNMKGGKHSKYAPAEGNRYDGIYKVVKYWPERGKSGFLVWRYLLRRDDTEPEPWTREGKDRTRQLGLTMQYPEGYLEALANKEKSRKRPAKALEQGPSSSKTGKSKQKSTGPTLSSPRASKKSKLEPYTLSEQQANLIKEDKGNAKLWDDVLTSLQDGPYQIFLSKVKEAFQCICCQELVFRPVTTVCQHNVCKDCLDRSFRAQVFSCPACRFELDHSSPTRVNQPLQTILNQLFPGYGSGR

The target in assay [3] is T3, mTTD-PHD V1 R298* (R298A) (mouse, UniProt Q8VDF2-1 122-380, R298A).
T3 construct: UHRF1, mouse, splicing variant V1 (NCBI NP_001104550.1), TTD-Linker 2-PHD, residues 122-380 as told for wild-type mTTD-PHD V1; source: E. coli BL21(DE3) RIL, purified (HisPur Cobalt-Resin)
T3 sequence (looked up): T1 sequence (looked up) with A172P, A173P, A174P, R177A

Assay [4] concerns the target T4, mUHRF1 V1 R-S* (R298A/N299A/T300A/G301A/K302A/S303A), full-length (mouse, UniProt Q8VDF2-1 1-782, R298A | N299A | T300A | G301A | K302A | S303A).
T4 construct: UHRF1, mouse, splicing variant V1, NCBI NP_001104550.1, with six alanine substitutions in Linker 2; source: E. coli BL21(DE3) RIL, purified (HisPur Cobalt-Resin)
T4 sequence (looked up): T2 sequence (looked up) with A293P, A294P, A295P

Assay [5] has as its target T5, mUHRF1 V1 mLinker 2 V1* (P293A/P294A/P295A/L297A/R298A/N299A/T300A/G301A/K302A/S303A), full-length (mouse, UniProt Q8VDF2-1 1-782, P293A | P294A | P295A | L297A | R298A | N299A | T300A | G301A | K302A | S303A).
T5 construct: UHRF1, mouse, splicing variant V1, NCBI NP_001104550.1, with ten alanine substitutions in Linker 2; source: E. coli BL21(DE3) RIL, purified (HisPur Cobalt-Resin)
T5 sequence (looked up): T2 sequence (looked up) with L297A

B1: FAM-H3(1-15)K9me3 peptide (N-terminally fluorescein-labelled) (peptide)
peptide: ARTKQTARKSTGGKA
modifications: fluorescein (FAM) on the N-terminus; K9 trimethylated
notes: histone H3 aa 1-15; also called FAM-H3K9me3; source: synthetic peptide (Synpeptide Co., Ltd)
Consider B1, for which the equilibrium dissociation constant (Kd) in assay [1] came to 10.2 ± 0.3 µM; in assay [2], 13.9 ± 0.8 µM; in assay [3], 5.9 ± 0.5 µM; in assay [4], 11.1 ± 0.3 µM; in assay [5], 12.6 ± 0.5 µM.
